In data set [1] the target is p75NTR death domain (Homo sapiens) (UniProt P08138). The experiment in a line: homo-FRET. The following applies: cited from earlier work.
Data set [2] deals with the molecule itself. The experiment in a line: cross-linking; spontaneous disulfide formation of purified protein in DMPC/CHAPS q = 1 bicelles, LPR 1,000:1 (repeated at 200:1), without reducing agent, room temperature; non-reducing SDS-PAGE at several time points; irreversible second-order kinetics.

These results are taken from PMC7427093, “Revising the mechanism of p75NTR activation: intrinsically monomeric state of death domains invokes the "helper" hypothesis” (Scientific Reports, 2020).

“And” between values parts separate entries of the source, which are not always exact repeats. Equal values may be shown once.

As a reminder, the Kd is the constant that tells how readily two partners part at equilibrium. In the case of “p75NTR death domain (from UniProt P08138)”, the Kd in data set [1] was 49 µM.

B1: rP75-ΔECD-3CX-249C: rat p75NTR residues 245-425 with T249C, C279S, C379S, C416S (domain or fragment, UniProt P07174 245-425, looked up)
chain: TRGTCDNLIPVYCSILAAVVVGLVAYIAFKRWNSSKQNKQGANSRPVNQTPPPEGEKLHSDSGISVDSQSLHDQQTHTQTASGQALKGDGNLYSSLPLTKREEVEKLLNGDTWRHLAGELGYQPEHIDSFTHEASPVRALLASWGAQDSATLDALLAALRRIQRADIVESLSSESTATSPV
notes: p75 neurotrophin receptor (p75NTR), rat, UniProt P07174, residues 245-425 (transmembrane and intracellular domains); also called T249C mutant; p75-ΔECD-T249C; source: also in the membrane fraction of E. coli, not purified
The term stoichiometry N denotes a count of units in the complex or per binding partner. Turning to B1, the “stoichiometry N” value in data set [2] is 2 and 4 and 6.
